We go through one molecule from patent US20240117054A1 (DRAGONFLY THERAPEUTICS, published 2024).

The assay deals with T1, human NKG2D (human, UniProt P26718 78-216, limits assumed).
T1 sequence (looked up): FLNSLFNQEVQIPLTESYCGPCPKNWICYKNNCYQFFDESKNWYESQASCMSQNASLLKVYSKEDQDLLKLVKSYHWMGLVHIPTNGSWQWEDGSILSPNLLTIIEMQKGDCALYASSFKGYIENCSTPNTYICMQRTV
The assay is described as follows: assay not described.

B1: F3′-1158 dead-2D (bispecific antibody, human IgG1, kappa)
chain: DIVMTQSPDSLAVSLGERATINCRASESVDTYGSSFVHWYQQKPGQPPKLLIYLASNLESGVPDRFSGSGSGTDFTLTISSLQAEDVAVYYCQQNNEEPWTFGCGTKVEIKGGGGSGGGGSGGGGSGGGGSQVQLVQSGAEVKKPGASVKVSCKASGYTFTRYVMHWVRQAPGQCLEWMGFINPYNDDTKYNEKFKGRVTITRDTSASTAYMELSSLRSEDTAVYYCARWRQLGSLDSWGQGTTVTVSSGSDKTHTCPPCPAPELLGGPSVFLFPPKPKDTLMISRTPEVTCVVVDVSHEDPEVKFNWYVDGVEVHNAKTKPREEQYNSTYRVVSVLTVLHQDWLNGKEYKCKVSNKALPAPIEKTISKAKGQPREPRVYTLPPCRDELTKNQVSLTCLVKGFYPSDIAVEWESNGQPENNYKTTPPVLVSDGSFTLYSKLTVDKSRWQQGNVFSCSVMHEALHNHYTQKSLSLSPG
heavy: EVQLVESGGGLVKPGGSLRLSCAASGFTFSSYSMNWVRQAPGKGLEWVSSISSSSSYIYYADSVKGRFTISRDNAKNSLYLQMNSLRAEDTAVYYCARGAPIGAAAGWFDPWGQGTLVTVSSASTKGPSVFPLAPSSKSTSGGTAALGCLVKDYFPEPVTVSWNSGALTSGVHTFPAVLQSSGLYSLSSVVTVPSSSLGTQTYICNVNHKPSNTKVDKKVEPKSCDKTHTCPPCPAPELLGGPSVFLFPPKPKDTLMISRTPEVTCVVVDVSHEDPEVKFNWYVDGVEVHNAKTKPREEQYNSTYRVVSVLTVLHQDWLNGKEYKCKVSNKALPAPIEKTISKAKGQPREPQVCTLPPSRDELTENQVSLTCLVKGFYPSDIAVEWESNGQPENNYKTTPPVLDSDGSFFLYSWLTVDKSRWQQGNVFSCSVMHEALHNHYTQKSLSLSPG
light: DIQMTQSPSTLSASVGDRVTITCRASNSISSWLAWYQQKPGKAPKLLIYEASSTKSGVPSRFSGSGSGTEFTLTISSLQPDDFATYYCQQYDDLPTFGGGTKVEIKRTVAAPSVFIFPPSDEQLKSGTASVVCLLNNFYPREAKVQWKVDNALQSGNSQESVTEQDSKDSTYSLSSTLTLSKADYEKHKVYACEVTHQGLSSPVTKSFNRGEC
notes: also called first variant
In the case of B1, the binding result was “no binding”.
